Reference: patent US20200352995A1

Assays:
[1] = target: LAG3 (CD223) on BCMA-specific CTL (human) (UniProt P18627); assay: cell-based or functional assay
[2] = target: OX40 (CD134) on BCMA-specific CTL (human) (UniProt P43489); assay: cell-based or functional assay
Sequence of OX40 (CD134) on BCMA-specific CTL (human) (P43489 29-277): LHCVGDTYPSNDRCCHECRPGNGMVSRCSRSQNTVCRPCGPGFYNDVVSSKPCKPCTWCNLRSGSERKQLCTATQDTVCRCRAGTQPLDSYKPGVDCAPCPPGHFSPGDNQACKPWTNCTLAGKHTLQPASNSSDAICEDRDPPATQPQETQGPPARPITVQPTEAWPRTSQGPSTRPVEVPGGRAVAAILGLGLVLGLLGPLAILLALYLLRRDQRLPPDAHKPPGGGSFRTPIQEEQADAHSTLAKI

Sequence of LAG3 (CD223) on BCMA-specific CTL (human) (P18627 23-525): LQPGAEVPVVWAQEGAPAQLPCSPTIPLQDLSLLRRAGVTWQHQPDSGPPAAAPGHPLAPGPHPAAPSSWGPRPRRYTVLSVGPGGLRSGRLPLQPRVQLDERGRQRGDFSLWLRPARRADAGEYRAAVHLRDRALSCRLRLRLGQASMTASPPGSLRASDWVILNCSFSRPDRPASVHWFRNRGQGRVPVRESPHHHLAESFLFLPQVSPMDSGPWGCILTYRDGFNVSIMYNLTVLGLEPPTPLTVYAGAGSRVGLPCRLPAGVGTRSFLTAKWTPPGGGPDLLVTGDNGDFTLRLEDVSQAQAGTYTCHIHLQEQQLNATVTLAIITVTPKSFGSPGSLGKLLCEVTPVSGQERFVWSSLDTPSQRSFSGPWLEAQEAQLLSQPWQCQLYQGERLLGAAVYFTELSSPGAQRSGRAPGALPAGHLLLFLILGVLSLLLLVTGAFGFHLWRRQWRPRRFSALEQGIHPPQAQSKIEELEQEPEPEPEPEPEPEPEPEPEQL

Substance | cytotoxic activity (CD107a degranulation) by memory CTL against HLA-A2+ McCAR MM cells [1] [%] | cytotoxic activity (CD107a degranulation) by memory CTL against HLA-A2+ U266 MM cells [1] [%] | cytotoxic activity (CD107a degranulation) by memory CTL against HLA-A2+ McCAR MM cells [2] [%] | cytotoxic activity (CD107a degranulation) by memory CTL against HLA-A2+ U266 MM cells [2] [%]
Clinical grade mAb to LAG3 (Bristol-Myers Squibb) (antibody) | 14.5 | 35.8 |  | 
Clinical grade mAb to OX40 (Bristol-Myers Squibb) (antibody) |  |  | 20 | 39.5
